Biological target: H1 A/New Caledonia/20/1999 haemagglutinin, wild-type trimeric protein (influenza A virus A/New Caledonia/20/1999 (H1N1)) (UniProt Q6WG00)
Experiment: ELISA

| Substance | ELISA endpoint dilution titre |
| --- | --- |
| CR6261 inferred germline antibody, germline heavy and germline light chain, soluble IgG | > 100 µg/mL |
| CR6261 somatic (mature) antibody, somatic heavy and somatic light chain, soluble IgG | 0.00133 µg/mL |
